Each substance was assayed on O=C(O)C(=O)/C=C/c1ccccc1O (assay: purified protein). Details: 50 mM Na2HPO4 pH 7.2, 22 °C.
“NahE (His-tag NahE) (Pseudomonas putida; Y155F)” showed a Km of 4 ± 1 µM, a kcat of 0.004 s⁻¹ and a kcat/Km of 1000 M⁻¹ s⁻¹.
“NahE (His-tag NahE) (Pseudomonas putida; W128Y)” was tested, and the Km was 7 ± 1 µM, the kcat was 5 s⁻¹ and the kcat/Km was 700000 M⁻¹ s⁻¹.
Work on “NahE (His-tag NahE) (Pseudomonas putida; W128F)” yielded a Km of 8 ± 2 µM, a kcat of 8 s⁻¹ and a kcat/Km of 1e+06 M⁻¹ s⁻¹.
Substance “NahE (His-tag NahE) (Pseudomonas putida; T65S)” has a Km of 1.7 ± 0.3 µM, a kcat of 0.0085 s⁻¹ and a kcat/Km of 5000 M⁻¹ s⁻¹.
For “NahE (His-tag NahE) (Pseudomonas putida; N157L)”, the Km was 60 ± 10 µM, the kcat was 0.6 s⁻¹ and the kcat/Km was 10000 M⁻¹ s⁻¹.
With “NahE (His-tag NahE) (Pseudomonas putida; N157A)” the Km was 8 ± 1 µM, the kcat was 0.13 s⁻¹ and the kcat/Km was 16000 M⁻¹ s⁻¹.
“NahE (His-tag NahE) (Pseudomonas putida; T65V)” showed a Km of 21 ± 8 µM, a kcat of 0.004 s⁻¹ and a kcat/Km of 190 M⁻¹ s⁻¹.

Reference: paper PMC9762252
